Laboratory results as given in patent publication US20230310621A1, “COMPLEXES FOR THE DELIVERY OF PROTEINACEOUS AGENTS” (priority 2020, published 2023).

Legend:
[1] = Ultrafiltration of PAEC; particle recovery by light scattering, free SDS by HPLC-ELSD; type: physicochemical; conditions: filtrate fraction of ultrafiltration
Experimental: The fraction of SDS under a free form, i.e. not associated to the PAECs, was determined on the following composition: P24/CpG/SDS/DA002: 200/80/200/350 μg/mL. This analysis was done after separation of the PAECs from free SDS, using ultrafiltration. The free SDS concentration in the permeate fraction was then determined by HPLC using an AZorbax 80A Extend-C18 column. 3.0×150 mm, 3.5 μm from Agilent and an Evaporative Light Scattering Detector (ELSD) Alltech® Model 3300.
Particle recovery has been estimated from the mean light scattering of the permeate fraction of ultrafiltration. The particle recovery percentage was measured as the mean and SD of light scattering count rate of 3 measurements; the SDS recovery percentage was measured as mean and SD of 2 HPLC analysis.

[2] = Circular dichroism, % helix in human insulin on storage at 4° C.; type: physicochemical
Experimental: From these CD spectra we have calculated the % of helix in human insulin overtime of storage at 4° C. on 12-day period. […] The CD spectra were taken […].
The CD analysis was carried out after storing the PAEC for 1, 6 or 12 days at 4° C.

Row | Compound | SDS recovery (wt %) ([1]; 2 HPLC analysis) | Particle recovery (Id %) ([1]; mean and SD of 3 measurements) | percentage helix content in human insulin, Day 1 ([2]; stored 1 day at 4° C.) [%] | percentage helix content in human insulin, Day 6 ([2]; stored 6 days at 4° C.) [%] | percentage helix content in human insulin, Day 12 ([2]; stored 12 days at 4° C.) [%]
1 | CCCCCCCCCCCCOS(=O)(=O)[O-].[Na+] [Free SDS, sodium dodecyl sulphate] | 100.0 | 0.78 ± 0.07 |  |  | 
2 | Human Insulin: free human insulin, small globular protein, Mw 5808 Da |  |  | 14.6 | 37.4 | 36.9
